These are literature values, as cited in article PMC7545370.

In series [1] the target is Ubiquitin (Homo sapiens) (UniProt P0CG48).
For series [2], the target named is KAP1 RBCC (Homo sapiens) (UniProt Q13263).
Sequence of KAP1 RBCC (Homo sapiens) (Q13263 62-379): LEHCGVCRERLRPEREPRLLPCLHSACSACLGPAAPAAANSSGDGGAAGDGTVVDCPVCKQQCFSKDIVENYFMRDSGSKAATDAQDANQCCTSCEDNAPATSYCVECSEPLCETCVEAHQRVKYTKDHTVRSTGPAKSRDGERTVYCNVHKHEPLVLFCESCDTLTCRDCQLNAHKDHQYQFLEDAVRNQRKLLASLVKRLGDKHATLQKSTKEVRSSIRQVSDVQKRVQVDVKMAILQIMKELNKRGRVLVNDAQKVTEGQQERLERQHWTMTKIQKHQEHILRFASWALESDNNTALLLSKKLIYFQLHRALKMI

Sequence of SMARCAD1 CUE1 (Q9H4L7 154-202): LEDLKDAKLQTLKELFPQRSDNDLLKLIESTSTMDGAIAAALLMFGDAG

In general, Kd refers to the constant that tells how readily two partners part at equilibrium. For the substance SMARCAD1 CUE1 (from UniProt Q9H4L7), the Kd in series [1] was 952 µM; in series [2], 0.158 µM.
